Substitutions are numbered along the chain they refer to.

The text below walks through data of publication PMC5810440, “The Origins of Specificity in the Microcin-Processing Protease TldD/E” (Structure(London, England:1993), 2017).

The target of data set [1] is T1, TldD/E (purified TldD and TldE combined) (Escherichia coli, UniProt P0AGG8).
T1 construct: with Metalloprotease PmbA
T1 sequence (P0AGG8 1-481): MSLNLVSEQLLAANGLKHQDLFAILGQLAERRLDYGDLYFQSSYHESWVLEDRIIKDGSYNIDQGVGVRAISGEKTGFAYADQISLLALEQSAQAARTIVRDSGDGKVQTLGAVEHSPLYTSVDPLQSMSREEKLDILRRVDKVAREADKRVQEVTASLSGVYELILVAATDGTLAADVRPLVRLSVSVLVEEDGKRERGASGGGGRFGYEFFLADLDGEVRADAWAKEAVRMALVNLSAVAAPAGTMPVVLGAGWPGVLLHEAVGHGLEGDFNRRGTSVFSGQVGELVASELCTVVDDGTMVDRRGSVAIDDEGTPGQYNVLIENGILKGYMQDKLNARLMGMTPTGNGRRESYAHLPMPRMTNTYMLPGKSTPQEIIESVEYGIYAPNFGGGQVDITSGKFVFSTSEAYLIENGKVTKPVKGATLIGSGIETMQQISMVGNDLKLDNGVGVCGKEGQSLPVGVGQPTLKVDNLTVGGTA
T1 sequence (P0AFK0 1-450 partner): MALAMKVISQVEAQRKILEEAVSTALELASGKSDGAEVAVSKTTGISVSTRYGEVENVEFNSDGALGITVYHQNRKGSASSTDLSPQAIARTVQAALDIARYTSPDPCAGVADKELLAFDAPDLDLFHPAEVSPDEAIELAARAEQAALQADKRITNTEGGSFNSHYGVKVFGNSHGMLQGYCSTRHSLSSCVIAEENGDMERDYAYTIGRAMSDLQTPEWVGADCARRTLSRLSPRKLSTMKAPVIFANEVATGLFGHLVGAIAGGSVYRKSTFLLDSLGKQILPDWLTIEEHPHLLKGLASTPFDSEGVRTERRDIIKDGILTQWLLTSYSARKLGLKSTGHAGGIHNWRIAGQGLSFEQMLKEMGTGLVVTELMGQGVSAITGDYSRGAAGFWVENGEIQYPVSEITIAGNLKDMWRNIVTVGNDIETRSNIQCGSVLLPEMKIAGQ
Put plainly: inhibition of angiotensin II hydrolysis. It is filed as biochemical. The following applies: substrate angiotensin II.

Data set [2] concerns the target N-terminally 6xHis-tagged E. coli TldD (pET28b, purified separately) (E. coli) (UniProt P0AGG8). Put plainly: AUC; sedimentation equilibrium, 0.2 mg/ml protein in 50 mM Tris-HCl pH 7.5, 100 mM NaCl, 10000 rpm, 20 C, single species model.
The target of data set [3] is T2, His-tagged E. coli TldD co-expressed with untagged TldE (pColA-Duet, MCS I) (E. coli, UniProt P0AGG8 1-481, Gly to Asp at position 401).
T2 construct: TldD of E. coli MG1655, cloned into MCS I of pColA-Duet (BamHI/HindIII); residues 2-481 seen in the crystals; Zn in the active site (grown with 50 uM ZnCl2 for crystals); also called TldD-His; His-tagged TldD; source: E. coli BL21 (DE3) Gold, co-overproduced with TldE
T2 sequence (looked up): T1 sequence (P0AGG8 1-481) with G401D
Put plainly: pull-down; Ni affinity chromatography of extracts of E. coli co-overproducing His-tagged TldD and untagged TldE; wash ~20 CV with 1 M NaCl, 50 mM imidazole, 0.1% Triton X-100; elution with 250 mM imidazole. The following applies: partners not purified.

In data set [4] the target is T3, E. coli TldD Glu263Ala mutant (subunit of the TldD^E263A/E complex) (E. coli, UniProt P0AGG8 1-481, E263A | Gly to Asp at position 401).
T3 construct: TldD of E. coli MG1655 with E263A; Gly401 to Asp was introduced into all the models; The methods say only that the mutants were made by overlap extension PCR and 'cloned and produced as described above'; also called Glu263Ala TldD mutant; source: E. coli, mutant protein complex with TldE
T3 sequence (looked up): T1 sequence (P0AGG8 1-481) with E263A, G401D
Put plainly: crystal structure; X-ray structures of the co-purified TldD/E heterodimer (wild type and TldD mutants), two heterodimers in the asymmetric unit; condition 1 (phosphate, PEG 3350) or condition 2 (PEG 1500, MMT pH 8.0), 20 C. The following applies: both partners purified.

Data set [5] has as its target T4, E. coli TldD His262Ala mutant (subunit of the TldD^H262A/E complex) (E. coli, UniProt P0AGG8 1-481, H262A | Gly to Asp at position 401).
T4 construct: TldD of E. coli MG1655 with H262A; Gly401 to Asp was introduced into all the models; source: E. coli, mutant protein complex with TldE
T4 sequence (looked up): T1 sequence (P0AGG8 1-481) with H262A, G401D
The data set is described as above. The following applies: both partners purified.

Data set [6] concerns the molecule itself. Put plainly: AUC; sedimentation equilibrium, 0.2 mg/ml protein in 50 mM Tris-HCl pH 7.5, 100 mM NaCl, 10000 rpm, 20 C, single species model.

Turning to `CCCCC[C@H](CC(=O)NO)C(=O)N[C@H](C(=O)N1CCC[C@H]1CO)C(C)C` [Actinonin], the “inhibition of angiotensin II hydrolysis” value in data set [1] was “actinonin (deformylase inhibitor) efficiently prevented angiotensin II hydrolysis by TldD/E”. Regarding “N-terminally 6xHis-tagged E. coli TldD (pET28b, purified separately) (from UniProt P0AGG8 1-481) (natural protein)”, in data set [2], the stoichiometry N was determined as 2.

B1: untagged E. coli TldE co-expressed with His-tagged TldD (pColA-Duet, MCS II) (natural protein, UniProt P0AFK0 1-450, looked up)
chain: T1 sequence (P0AFK0 1-450 partner)
notes: TldE (PmbA) of E. coli MG1655, cloned into the second MCS of pColA-Duet (NdeI/XhoI), untagged; residues 6-450 seen in the crystals; also called PmbA; TldE subunit; source: E. coli BL21 (DE3) Gold, co-overproduced with His-tagged TldD
Take B1: the binding result in data set [3], in data set [4] and in data set [5] was “binds” in each case.

B2: N-terminally 6xHis-tagged E. coli TldE (pET28b, purified separately) (natural protein, UniProt P0AFK0 1-450, looked up)
chain: T1 sequence (P0AFK0 1-450 partner)
notes: 50.5 kDa with the tag; also called His-TldE; PmbA; source: E. coli BL21 (DE3) Gold, purified (Ni-NTA)
On to B2, for which the “stoichiometry N” value in data set [6] came to 2.

One may read the stoichiometry N as a count of units in the complex or per binding partner.
